The results in this text go back to doi:10.1101/2025.03.18.643936.

Values joined by “and” are separate entries in the source; they are usually repeats but may differ in a detail not shown here. Identical values can stand only once.

The target of the assay is the i20S and the s20S (human). Nature of the assay: mass photometry.

In the case of “recombinantly expressed and purified human PA200 (from UniProt Q14997 1-1843) (natural protein)”, the Kd, first binding event was 20 nM and 30 nM.
